Measurements published in patent US10941182 (Amgen, dated 2021).
Starred links: 1 amine or outer side, 2 acyl side, 3 side chain; linkers in the order of their positions; H or OH if unused. Non-standard residues stand in square brackets, D forms with d. *: point of attachment. AC4Abu = α-carboxy-4-aminobutyric acid, O=C(C(CCN[*:1])C(=O)[*:3])[*:2]; dBip = N[C@H](Cc1ccc(-c2ccccc2)cc1)C(=O)O; Oic = O=C(O)[C@@H]1C[C@@H]2CCCC[C@@H]2N1; Phe(4-Cl) = N[C@@H](Cc1ccc(Cl)cc1)C(=O)O; dPhe(4-Cl) = N[C@H](Cc1ccc(Cl)cc1)C(=O)O; Phe(4-I) = N[C@@H](Cc1ccc(I)cc1)C(=O)O; γGlu = O=C(O)[C@H](CCC(=O)[*:2])N[*:1]; NMeR = CN[C@@H](CCCNC(=N)N)C(=O)O; Tridecanoyl = CCCCCCCCCCCCC(=O)*; hArg = N=C(N)NCCCC[C@H](N)C(=O)O; Cha = N[C@@H](CC1CCCCC1)C(=O)O; NMeL = CN[C@@H](CC(C)C)C(=O)O; αMeL = CC(C)C[C@](C)(N)C(=O)O; β3hN = NC(=O)C[C@H](N)CC(=O)O; β3hL = CC(C)C[C@H](N)CC(=O)O; αMeP = C[C@@]1(C(=O)O)CCCN1; Nle = CCCC[C@H](N)C(=O)O; Deg = CCC(N)(CC)C(=O)O; AEEA = NCCOCCOCC(=O)O; BLeu = β-leucine

T1: human APJ receptor (human, UniProt P35414 1-380)
T1 sequence (looked up): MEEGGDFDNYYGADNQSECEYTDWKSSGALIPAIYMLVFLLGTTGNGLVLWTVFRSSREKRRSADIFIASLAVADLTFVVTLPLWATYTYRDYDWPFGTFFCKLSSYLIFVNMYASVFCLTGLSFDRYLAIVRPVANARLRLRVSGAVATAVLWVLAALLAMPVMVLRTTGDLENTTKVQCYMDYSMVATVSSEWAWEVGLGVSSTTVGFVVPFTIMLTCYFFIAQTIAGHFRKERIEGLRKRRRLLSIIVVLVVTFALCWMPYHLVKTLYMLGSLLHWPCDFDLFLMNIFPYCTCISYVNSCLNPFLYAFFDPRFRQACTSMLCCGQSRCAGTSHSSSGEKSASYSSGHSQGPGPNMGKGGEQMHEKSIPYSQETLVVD

T2: rat APJ receptor (rat, UniProt Q9JHG3 1-377)
T2 sequence (looked up): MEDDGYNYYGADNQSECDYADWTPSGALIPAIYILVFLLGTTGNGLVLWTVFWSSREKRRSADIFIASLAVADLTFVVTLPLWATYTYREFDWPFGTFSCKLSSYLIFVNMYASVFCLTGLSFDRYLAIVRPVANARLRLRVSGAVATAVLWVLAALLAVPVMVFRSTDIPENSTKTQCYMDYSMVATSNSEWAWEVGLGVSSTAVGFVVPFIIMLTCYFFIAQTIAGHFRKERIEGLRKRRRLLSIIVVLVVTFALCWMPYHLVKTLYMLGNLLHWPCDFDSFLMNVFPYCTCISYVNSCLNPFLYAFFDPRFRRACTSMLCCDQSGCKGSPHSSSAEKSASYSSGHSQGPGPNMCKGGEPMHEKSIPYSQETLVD


Experiments:
human APJ receptor = molecular target: T1, human APJ receptor; assay: cell-based or functional assay
rat APJ receptor = molecular target: T2, rat APJ receptor; assay: cell-based or functional assay

Binder | EC50 Human APJ Receptor (human APJ receptor) [nM] | EC50 Rat APJ Receptor (rat APJ receptor) [nM]
Tridecanoyl-[AC4Abu][AEEA][AEEA][BLeu]R[αMeP][hArg][αMeL]SHKG[Oic][Nle][αMeP][Phe(4-Cl)]-OH [SEQ ID NO: 552] | 1.96 | 4.88
XXXLRPRLSHKGPXPF ({TDA}[AC4Abu][Aeea][Aeea][BhLeu]RP[NMeArg]LSHKGP[Nle]P[4-Cl-F]{COOH}) [SEQ ID NO: 421] | 0.0934 | 0.285
Tridecanoyl-[AC4Abu][AEEA][AEEA][Deg][hArg]P[dR][Cha]SHKG[Oic][Nle]P[Phe(4-Cl)]-OH (SMILES CCCCCCCCCCCCC(=O)NCCC(C(=O)O)C(=O)NCCOCCOCC(=O)NCCOCCOCC(=O)NC(CC)(CC)C(=O)N[C@@H](CCCCNC(=N)N)C(=O)N1CCC[C@H]1C(=O)N[C@H](CCCNC(=N)N)C(=O)N[C@@H](CC1CCCCC1)C(=O)N[C@@H](CO)C(=O)N[C@@H](Cc1c[nH]cn1)C(=O)N[C@@H](CCCCN)C(=O)NCC(=O)N1[C@H](C(=O)N[C@@H](CCCC)C(=O)N2CCC[C@H]2C(=O)N[C@@H](Cc2ccc(Cl)cc2)C(=O)O)C[C@@H]2CCCC[C@@H]21) [SEQ ID NO: 558] | 3.4 | 12.5
Tridecanoyl-[γGlu][AEEA][AEEA][hArg][Nle]Q[hArg]P[dR][NMeL]AHKG[Oic][Phe(4-I)]P[dBip]-OH (SMILES CCCCCCCCCCCCC(=O)N[C@@H](CCC(=O)NCCOCCOCC(=O)NCCOCCOCC(=O)N[C@@H](CCCCNC(=N)N)C(=O)N[C@@H](CCCC)C(=O)N[C@@H](CCC(N)=O)C(=O)N[C@@H](CCCCNC(=N)N)C(=O)N1CCC[C@H]1C(=O)N[C@H](CCCNC(=N)N)C(=O)N(C)[C@@H](CC(C)C)C(=O)N[C@@H](C)C(=O)N[C@@H](Cc1c[nH]cn1)C(=O)N[C@@H](CCCCN)C(=O)NCC(=O)N1[C@H](C(=O)N[C@@H](Cc2ccc(I)cc2)C(=O)N2CCC[C@H]2C(=O)N[C@H](Cc2ccc(-c3ccccc3)cc2)C(=O)O)C[C@@H]2CCCC[C@@H]21)C(=O)O) [SEQ ID NO: 321] | 17.9 | 29.1
Tridecanoyl-[γGlu][AEEA][AEEA][β3hN]RP[NMeR]LSHKGP[Nle]P[Phe(4-Cl)]-OH (SMILES CCCCCCCCCCCCC(=O)N[C@@H](CCC(=O)NCCOCCOCC(=O)NCCOCCOCC(=O)N[C@@H](CC(N)=O)CC(=O)N[C@@H](CCCNC(=N)N)C(=O)N1CCC[C@H]1C(=O)N(C)[C@@H](CCCNC(=N)N)C(=O)N[C@@H](CC(C)C)C(=O)N[C@@H](CO)C(=O)N[C@@H](Cc1c[nH]cn1)C(=O)N[C@@H](CCCCN)C(=O)NCC(=O)N1CCC[C@H]1C(=O)N[C@@H](CCCC)C(=O)N1CCC[C@H]1C(=O)N[C@@H](Cc1ccc(Cl)cc1)C(=O)O)C(=O)O) [SEQ ID NO: 420] | 0.0525 | 0.0838
Tridecanoyl-[γGlu][AEEA][AEEA][BLeu]RP[hArg][BLeu]SHKG[Oic][Nle]P[Phe(4-Cl)]-OH [SEQ ID NO: 395] | 0.741 | 1.02
Tridecanoyl-[γGlu][AEEA][AEEA][BLeu]RP[NMeR][αMeL]SHKG[Oic][Nle][αMeP][Phe(4-Cl)]-OH [SEQ ID NO: 388] | 0.706 | 0.727
Tridecanoyl-[γGlu][AEEA][AEEA][β3hN][hArg]P[NMeR][Cha]SHKG[Oic][Nle]P[dPhe(4-Cl)]-OH (SMILES CCCCCCCCCCCCC(=O)N[C@@H](CCC(=O)NCCOCCOCC(=O)NCCOCCOCC(=O)N[C@@H](CC(N)=O)CC(=O)N[C@@H](CCCCNC(=N)N)C(=O)N1CCC[C@H]1C(=O)N(C)[C@@H](CCCNC(=N)N)C(=O)N[C@@H](CC1CCCCC1)C(=O)N[C@@H](CO)C(=O)N[C@@H](Cc1c[nH]cn1)C(=O)N[C@@H](CCCCN)C(=O)NCC(=O)N1[C@H](C(=O)N[C@@H](CCCC)C(=O)N2CCC[C@H]2C(=O)N[C@H](Cc2ccc(Cl)cc2)C(=O)O)C[C@@H]2CCCC[C@@H]21)C(=O)O) [SEQ ID NO: 299] | 24.4 | 14.6
Tridecanoyl-[γGlu][AEEA][AEEA][β3hL][hArg]P[NMeR][Cha]SHKG[Oic][Nle]P[dPhe(4-Cl)]-OH (SMILES CCCCCCCCCCCCC(=O)N[C@@H](CCC(=O)NCCOCCOCC(=O)NCCOCCOCC(=O)N[C@H](CC(=O)N[C@@H](CCCCNC(=N)N)C(=O)N1CCC[C@H]1C(=O)N(C)[C@@H](CCCNC(=N)N)C(=O)N[C@@H](CC1CCCCC1)C(=O)N[C@@H](CO)C(=O)N[C@@H](Cc1c[nH]cn1)C(=O)N[C@@H](CCCCN)C(=O)NCC(=O)N1[C@H](C(=O)N[C@@H](CCCC)C(=O)N2CCC[C@H]2C(=O)N[C@H](Cc2ccc(Cl)cc2)C(=O)O)C[C@@H]2CCCC[C@@H]21)CC(C)C)C(=O)O) [SEQ ID NO: 300] | 41.5 | 36.4
Tridecanoyl-[γGlu][AEEA][AEEA][BLeu]RP[NMeR][Cha]SHKG[Oic][Nle]P[Phe(4-Cl)]-OH [SEQ ID NO: 393] | 0.769 | 2.67
Tridecanoyl-[γGlu][AEEA][AEEA][BLeu]RP[NMeR][αMeL]SHKG[Oic][Nle]P[Phe(4-Cl)]-OH [SEQ ID NO: 374] | 0.305 | 0.503
Tridecanoyl-[γGlu][AEEA][AEEA][BLeu][hArg]P[NMeR][Cha]SHKG[Oic][Nle]P[dPhe(4-Cl)]-OH [SEQ ID NO: 298] | 32.8 | 24.9
Tridecanoyl-[γGlu][AEEA][AEEA][Deg]RP[NMeR][Cha]SHKG[Oic][Nle]P[Phe(4-Cl)]-OH (SMILES CCCCCCCCCCCCC(=O)N[C@@H](CCC(=O)NCCOCCOCC(=O)NCCOCCOCC(=O)NC(CC)(CC)C(=O)N[C@@H](CCCNC(=N)N)C(=O)N1CCC[C@H]1C(=O)N(C)[C@@H](CCCNC(=N)N)C(=O)N[C@@H](CC1CCCCC1)C(=O)N[C@@H](CO)C(=O)N[C@@H](Cc1c[nH]cn1)C(=O)N[C@@H](CCCCN)C(=O)NCC(=O)N1[C@H](C(=O)N[C@@H](CCCC)C(=O)N2CCC[C@H]2C(=O)N[C@@H](Cc2ccc(Cl)cc2)C(=O)O)C[C@@H]2CCCC[C@@H]21)C(=O)O) [SEQ ID NO: 443] | 2.31 | 1.67
Tridecanoyl-[γGlu][AEEA][AEEA][BLeu]RP[NMeR][BLeu]SHKG[Oic][Nle]P[Phe(4-Cl)]-OH [SEQ ID NO: 394] | 0.297 | 1.5
